Test results reported in patent publication US20240092942A1.
Each block holds one substance with its values, some of them ahead of it.

Key:
[1] = target: huFcγRIIb on CHO^huFcγRIIb cells; experiment: flow cytometry on CHO^huFcγRIIb cells, anti-huCD32 mAb + PE-GAM F(ab')2; histogram peak at about 1.5e3; parental CHO cells: 86 printed
[2] = target: huEGFR on the cell surface (3T3^huEGFR, wild-type HEK293 (EGFR+), A431 cells) (human) (UniProt P00533); experiment: flow cytometry on 3T3^huEGFR cells, PE-conjugated anti-huEGFR mAb; second number of the panel, given to the second cell line of the key (narrow histogram) [cont.) g, upper panel]
[3] = target: huEGFR on the cell surface (3T3^huEGFR, wild-type HEK293 (EGFR+), A431 cells) (human) (UniProt P00533); experiment: flow cytometry on MDA-MB-231 cells, PE-conjugated anti-huEGFR mAb; first number of the panel, given to the first cell line of the key (broad, most shifted histogram) [cont.) g, upper panel]
[4] = target: huEGFR on the cell surface (3T3^huEGFR, wild-type HEK293 (EGFR+), A431 cells) (human) (UniProt P00533); experiment: flow cytometry on 3T3^huEGFR cells, PE-conjugated anti-huEGFR mAb; histogram peak at about 2e3; parental 3T3 cells: 176 printed
[5] = target: PD-L1 on MDA-MB-231 cells (Homo sapiens) (UniProt Q9NZQ7); experiment: flow cytometry on MDA-MB-231 cells, APC-conjugated anti-huPD-L1 mAb; histogram peak at about 3e3 against control at about 2.5e2; 3T3^huEGFR cells (PD-L1 negative): 0 printed [cont.) g, lower panel]
Sequence of PD-L1 on MDA-MB-231 cells (Homo sapiens) (Q9NZQ7 19-290 limits assumed): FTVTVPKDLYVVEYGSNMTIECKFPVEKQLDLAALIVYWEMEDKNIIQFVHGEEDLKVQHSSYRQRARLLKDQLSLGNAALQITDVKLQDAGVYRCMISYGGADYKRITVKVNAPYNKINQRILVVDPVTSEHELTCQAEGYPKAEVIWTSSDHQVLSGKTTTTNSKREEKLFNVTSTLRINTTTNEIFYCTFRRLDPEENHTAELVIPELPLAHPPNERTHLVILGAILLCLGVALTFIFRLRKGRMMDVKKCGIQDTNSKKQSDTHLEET

MFI [1]: 1040
Substance: anti-huCD32 mAb (clone FUN-2); the sheet prints only the axis label huFcγRIIb (antibody)

MFI [2]: 1820
MFI [3]: 5820
MFI [4]: 1730
Substance: anti-huEGFR PE-conjugated mAb (clone EGFR.1); the sheet prints only the axis label huEGFR (antibody)

MFI [5]: 3260
Substance: anti-huPD-L1 APC-conjugated mAb (clone MIH1); the sheet prints only the axis label PD-L1 (antibody)
